Data set [1] deals with the molecule itself. As to the kind of experiment: SEC; Superose 12 10/300, 20 mM HEPES, 100 mM NaCl, pH 7.6, 7°C, 0.5 mL/min; self-association of the purified variant. Background: Size exclusion chromatography separates by hydrodynamic size, large species first.
Data set [2] deals with the molecule itself. As to the kind of experiment: cross-linking; BS3 (285 μM), 5.7 μM protein incubated 2 h with DOPG liposomes of increasing concentrations, 25°C, SDS-PAGE; self-association.

The record followed here is article PMC12636044, “Membrane binding of a cyanobacterial ESCRT‐III protein crucially involves the helix α1‐3 hairpin conserved in all superfamily members” (Protein Science : A Publication of the Protein Society, 2025).

B1: IM30 wt (inner membrane-associated protein of 30 kDa) (natural protein, Synechocystis, UniProt Q55707 1-267, looked up)
chain: MGLFDRLGRVVRANLNDLVSKAEDPEKVLEQAVIDMQEDLVQLRQAVARTIAEEKRTEQRLNQDTQEAKKWEDRAKLALTNGEENLAREALARKKSLTDTAAAYQTQLAQQRTMSENLRRNLAALEAKISEAKTKKNMLQARAKAAKANAELQQTLGGLGTSSATSAFERMENKVLDMEATSQAAGELAGFGIENQFAQLEASSGVEDELAALKASMAGGALPGTSAATPQLEAAPVDSSVPANNASQDDAVIDQELDDLRRRLNNL
notes: IM30 (Vipp1) of Synechocystis, full-length wild type; calculated MW 31.7 kDa with tag; Forms homo-oligomeric barrels and rods of several MDa; the number of subunits was not measured here; also called wt IM30; Vipp1
For B1, the binding result in data set [1] is on record as “binds”.

B2: IM30 α1-3 (domain or fragment, Synechocystis, UniProt Q55707 26-156, looked up)
chain: EKVLEQAVIDMQEDLVQLRQAVARTIAEEKRTEQRLNQDTQEAKKWEDRAKLALTNGEENLAREALARKKSLTDTAAAYQTQLAQQRTMSENLRRNLAALEAKISEAKTKKNMLQARAKAAKANAELQQTL
notes: IM30 (Vipp1) of Synechocystis, helical hairpin α1-3, residues 26-156 (printed for the α1-3 fragment in the simulation); calculated mass about 17.5 kDa; also called IM30 αH1-3; α1-3 helical hairpin; not shown: His10, N-terminal, kept
On to B2, for which the binding result in data set [2] is recorded as “binds”.
